Non-standard residues stand in square brackets, D forms with d. *: point of attachment. Tyr(3-F) = N[C@@H](Cc1ccc(O)c(F)c1)C(=O)O; Tyr(2-F) = N[C@@H](Cc1ccc(O)cc1F)C(=O)O; Phe(4-F) = N[C@@H](Cc1ccc(F)cc1)C(=O)O; tBuAla = CC(C)(C)C[C@H](N)C(=O)O; 3Pal = N[C@@H](Cc1cccnc1)C(=O)O; 4Pal = N[C@@H](Cc1ccncc1)C(=O)O; dHyp = O=C(O)[C@H]1C[C@H](O)CN1; Cha = N[C@@H](CC1CCCCC1)C(=O)O; Gly(cPr) = N[C@H](C(=O)O)C1CC1; Isobutyryl = CC(C)C(=O)*; Abu = CC[C@H](N)C(=O)O; Aib = CC(C)(N)C(=O)O
Key:
[1] = target: T1, human Y2 receptor (Homo sapiens, UniProt P49146); assay: Receptor Binding Assay (RBA) for Human Y2, [125I]-PYY displacement on hY2R/CHO membrane fraction; details: IC50 of test compound/IC50 of PYY(3-36) (PYY(3-36) taken as 1)
T1 construct: expressed in transfected cells; membrane fraction
T1 sequence (P49146 1-381): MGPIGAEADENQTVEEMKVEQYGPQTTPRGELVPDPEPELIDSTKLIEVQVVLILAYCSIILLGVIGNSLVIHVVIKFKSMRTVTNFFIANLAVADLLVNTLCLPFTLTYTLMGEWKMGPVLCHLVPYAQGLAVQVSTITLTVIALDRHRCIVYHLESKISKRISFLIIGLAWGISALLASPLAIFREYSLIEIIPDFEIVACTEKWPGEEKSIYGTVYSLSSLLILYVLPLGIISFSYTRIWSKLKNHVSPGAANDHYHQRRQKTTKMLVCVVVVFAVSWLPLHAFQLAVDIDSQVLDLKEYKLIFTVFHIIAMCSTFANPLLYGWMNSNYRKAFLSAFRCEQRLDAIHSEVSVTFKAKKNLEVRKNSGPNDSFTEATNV
Procedure, shortened: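 Read-out is [125I]-PYY displacement from membranes of CHO/dhfr− cells stably transfected with human Y2R. Membranes were obtained by disrupting cells in a buffer of 10 mM NaHCO3, 5 mM EDTA and protease inhibitors.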

[2] = target: T1, human Y2 receptor; assay: Human Y2 Receptor G Protein Binding Assay (GBA), [35S]GTPγS; assay type: biochemical; details: EC50 of test compound/EC50 of PYY(3-36) (PYY3-36 taken as 1), hY2R/CHO membrane fraction
Procedure, shortened: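 Agonism measured as [35S]GTPγS binding, read by GF/C filtration and scintillation counting after 120 min at room temperature, using human Y2 membranes at 1 μg protein/mL in pH 7.4 Tris/MgCl2/NaCl/GDP buffer. Compound serially diluted 100 μM–1 nM; EC50 normalized to PYY(3-36) (ratio = compound/PYY).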

Row | Substance | RBA IC50 Ratio [1] | GBA EC50 Ratio [2]
1 | Isobutanoyl-[Abu26, Cha27,28,36, Leu(Me)30, Aib31]-PYY(25-36) (Isobutyryl-R[Abu][Cha][Cha]N[tBuAla][Aib]TRQR[Cha]-NH2; SMILES CC[C@H](NC(=O)[C@H](CCCNC(=N)N)NC(=O)C(C)C)C(=O)N[C@@H](CC1CCCCC1)C(=O)N[C@@H](CC1CCCCC1)C(=O)N[C@@H](CC(N)=O)C(=O)N[C@@H](CC(C)(C)C)C(=O)NC(C)(C)C(=O)N[C@H](C(=O)N[C@@H](CCCNC(=N)N)C(=O)N[C@@H](CCC(N)=O)C(=O)N[C@@H](CCCNC(=N)N)C(=O)N[C@@H](CC1CCCCC1)C(N)=O)[C@@H](C)O) [compound No. 81] | 51 | 26
2 | Isobutanoyl-[Abu26, Cha27,28,36, Pya(3)31]-PYY(25-36) (Isobutyryl-R[Abu][Cha][Cha]NL[3Pal]TRQR[Cha]-NH2; SMILES CC[C@H](NC(=O)[C@H](CCCNC(=N)N)NC(=O)C(C)C)C(=O)N[C@@H](CC1CCCCC1)C(=O)N[C@@H](CC1CCCCC1)C(=O)N[C@@H](CC(N)=O)C(=O)N[C@@H](CC(C)C)C(=O)N[C@@H](Cc1cccnc1)C(=O)N[C@H](C(=O)N[C@@H](CCCNC(=N)N)C(=O)N[C@@H](CCC(N)=O)C(=O)N[C@@H](CCCNC(=N)N)C(=O)N[C@@H](CC1CCCCC1)C(N)=O)[C@@H](C)O) [compound No. 82] | 25 | 19
3 | Isobutanoyl-[Abu26, Cha27,28,36, Ser30, Aib31]-PYY(25-36) (Isobutyryl-R[Abu][Cha][Cha]NS[Aib]TRQR[Cha]-NH2; SMILES CC[C@H](NC(=O)[C@H](CCCNC(=N)N)NC(=O)C(C)C)C(=O)N[C@@H](CC1CCCCC1)C(=O)N[C@@H](CC1CCCCC1)C(=O)N[C@@H](CC(N)=O)C(=O)N[C@@H](CO)C(=O)NC(C)(C)C(=O)N[C@H](C(=O)N[C@@H](CCCNC(=N)N)C(=O)N[C@@H](CCC(N)=O)C(=O)N[C@@H](CCCNC(=N)N)C(=O)N[C@@H](CC1CCCCC1)C(N)=O)[C@@H](C)O) [compound No. 89] | 26 | 28
4 | Isobutanoyl-[Abu26, Cha27,28, Aib31, Tyr(2F)36]-PYY(25-36) (Isobutyryl-R[Abu][Cha][Cha]NL[Aib]TRQR[Tyr(2-F)]-NH2; SMILES CC[C@H](NC(=O)[C@H](CCCNC(=N)N)NC(=O)C(C)C)C(=O)N[C@@H](CC1CCCCC1)C(=O)N[C@@H](CC1CCCCC1)C(=O)N[C@@H](CC(N)=O)C(=O)N[C@@H](CC(C)C)C(=O)NC(C)(C)C(=O)N[C@H](C(=O)N[C@@H](CCCNC(=N)N)C(=O)N[C@@H](CCC(N)=O)C(=O)N[C@@H](CCCNC(=N)N)C(=O)N[C@@H](Cc1ccc(O)cc1F)C(N)=O)[C@@H](C)O) [compound No. 86] | 19 | 11
5 | Isobutanoyl-[Abu26, Cha27,28, Aib31, Tyr(3F)36]-PYY(25-36) (Isobutyryl-R[Abu][Cha][Cha]NL[Aib]TRQR[Tyr(3-F)]-NH2; SMILES CC[C@H](NC(=O)[C@H](CCCNC(=N)N)NC(=O)C(C)C)C(=O)N[C@@H](CC1CCCCC1)C(=O)N[C@@H](CC1CCCCC1)C(=O)N[C@@H](CC(N)=O)C(=O)N[C@@H](CC(C)C)C(=O)NC(C)(C)C(=O)N[C@H](C(=O)N[C@@H](CCCNC(=N)N)C(=O)N[C@@H](CCC(N)=O)C(=O)N[C@@H](CCCNC(=N)N)C(=O)N[C@@H](Cc1ccc(O)c(F)c1)C(N)=O)[C@@H](C)O) [compound No. 87] | 26 | 20
6 | Isobutanoyl-[Abu26, Cha27,36, Gln28, Aib31]-PYY(25-36) (Isobutyryl-R[Abu][Cha]QNL[Aib]TRQR[Cha]-NH2; SMILES CC[C@H](NC(=O)[C@H](CCCNC(=N)N)NC(=O)C(C)C)C(=O)N[C@@H](CC1CCCCC1)C(=O)N[C@@H](CCC(N)=O)C(=O)N[C@@H](CC(N)=O)C(=O)N[C@@H](CC(C)C)C(=O)NC(C)(C)C(=O)N[C@H](C(=O)N[C@@H](CCCNC(=N)N)C(=O)N[C@@H](CCC(N)=O)C(=O)N[C@@H](CCCNC(=N)N)C(=O)N[C@@H](CC1CCCCC1)C(N)=O)[C@@H](C)O) [compound No. 100] | 45 | 30
7 | Isobutanoyl-[Abu26, Cha27,36, Gly(cPr)28, Aib31]-PYY(25-36) (Isobutyryl-R[Abu][Cha][Gly(cPr)]NL[Aib]TRQR[Cha]-NH2; SMILES CC[C@H](NC(=O)[C@H](CCCNC(=N)N)NC(=O)C(C)C)C(=O)N[C@@H](CC1CCCCC1)C(=O)N[C@H](C(=O)N[C@@H](CC(N)=O)C(=O)N[C@@H](CC(C)C)C(=O)NC(C)(C)C(=O)N[C@H](C(=O)N[C@@H](CCCNC(=N)N)C(=O)N[C@@H](CCC(N)=O)C(=O)N[C@@H](CCCNC(=N)N)C(=O)N[C@@H](CC1CCCCC1)C(N)=O)[C@@H](C)O)C1CC1) [compound No. 93] | 52 | 41
8 | Isobutanoyl-[Abu26, Cha27,36, His28, Aib31]-PYY(25-36) (Isobutyryl-R[Abu][Cha]HNL[Aib]TRQR[Cha]-NH2; SMILES CC[C@H](NC(=O)[C@H](CCCNC(=N)N)NC(=O)C(C)C)C(=O)N[C@@H](CC1CCCCC1)C(=O)N[C@@H](Cc1c[nH]cn1)C(=O)N[C@@H](CC(N)=O)C(=O)N[C@@H](CC(C)C)C(=O)NC(C)(C)C(=O)N[C@H](C(=O)N[C@@H](CCCNC(=N)N)C(=O)N[C@@H](CCC(N)=O)C(=O)N[C@@H](CCCNC(=N)N)C(=O)N[C@@H](CC1CCCCC1)C(N)=O)[C@@H](C)O) [compound No. 101] | 19 | 13
9 | Isobutanoyl-[Abu26, Cha27,36, Phe(4F)28, Aib31]-PYY(25-36) (Isobutyryl-R[Abu][Cha][Phe(4-F)]NL[Aib]TRQR[Cha]-NH2; SMILES CC[C@H](NC(=O)[C@H](CCCNC(=N)N)NC(=O)C(C)C)C(=O)N[C@@H](CC1CCCCC1)C(=O)N[C@@H](Cc1ccc(F)cc1)C(=O)N[C@@H](CC(N)=O)C(=O)N[C@@H](CC(C)C)C(=O)NC(C)(C)C(=O)N[C@H](C(=O)N[C@@H](CCCNC(=N)N)C(=O)N[C@@H](CCC(N)=O)C(=O)N[C@@H](CCCNC(=N)N)C(=O)N[C@@H](CC1CCCCC1)C(N)=O)[C@@H](C)O) [compound No. 79] | 23 | 20
10 | Isobutanoyl-[Abu26, Cha27,36, Pya(4)28, Aib31]-PYY(25-36) (Isobutyryl-R[Abu][Cha][4Pal]NL[Aib]TRQR[Cha]-NH2; SMILES CC[C@H](NC(=O)[C@H](CCCNC(=N)N)NC(=O)C(C)C)C(=O)N[C@@H](CC1CCCCC1)C(=O)N[C@@H](Cc1ccncc1)C(=O)N[C@@H](CC(N)=O)C(=O)N[C@@H](CC(C)C)C(=O)NC(C)(C)C(=O)N[C@H](C(=O)N[C@@H](CCCNC(=N)N)C(=O)N[C@@H](CCC(N)=O)C(=O)N[C@@H](CCCNC(=N)N)C(=O)N[C@@H](CC1CCCCC1)C(N)=O)[C@@H](C)O) [compound No. 83] | 26 | 22
11 | Isobutanoyl-[Abu26, Cha27,36, Ser28, Aib31]-PYY(25-36) (Isobutyryl-R[Abu][Cha]SNL[Aib]TRQR[Cha]-NH2; SMILES CC[C@H](NC(=O)[C@H](CCCNC(=N)N)NC(=O)C(C)C)C(=O)N[C@@H](CC1CCCCC1)C(=O)N[C@@H](CO)C(=O)N[C@@H](CC(N)=O)C(=O)N[C@@H](CC(C)C)C(=O)NC(C)(C)C(=O)N[C@H](C(=O)N[C@@H](CCCNC(=N)N)C(=O)N[C@@H](CCC(N)=O)C(=O)N[C@@H](CCCNC(=N)N)C(=O)N[C@@H](CC1CCCCC1)C(N)=O)[C@@H](C)O) [compound No. 102] | 49 | 35
12 | Isobutanoyl-[Abu26, Gly27, Cha28,36, Aib31]-PYY(25-36) (Isobutyryl-R[Abu]G[Cha]NL[Aib]TRQR[Cha]-NH2; SMILES CC[C@H](NC(=O)[C@H](CCCNC(=N)N)NC(=O)C(C)C)C(=O)NCC(=O)N[C@@H](CC1CCCCC1)C(=O)N[C@@H](CC(N)=O)C(=O)N[C@@H](CC(C)C)C(=O)NC(C)(C)C(=O)N[C@H](C(=O)N[C@@H](CCCNC(=N)N)C(=O)N[C@@H](CCC(N)=O)C(=O)N[C@@H](CCCNC(=N)N)C(=O)N[C@@H](CC1CCCCC1)C(N)=O)[C@@H](C)O) [compound No. 95] | 70 | 49
13 | Isobutanoyl-[Asp23, D-Hyp24, Cha27,28,36, Aib31]-PYY(23-36) (Isobutyryl-D[dHyp]RH[Cha][Cha]NL[Aib]TRQR[Cha]-NH2; SMILES CC(C)C[C@H](NC(=O)[C@H](CC(N)=O)NC(=O)[C@H](CC1CCCCC1)NC(=O)[C@H](CC1CCCCC1)NC(=O)[C@H](Cc1c[nH]cn1)NC(=O)[C@H](CCCNC(=N)N)NC(=O)[C@H]1C[C@H](O)CN1C(=O)[C@H](CC(=O)O)NC(=O)C(C)C)C(=O)NC(C)(C)C(=O)N[C@H](C(=O)N[C@@H](CCCNC(=N)N)C(=O)N[C@@H](CCC(N)=O)C(=O)N[C@@H](CCCNC(=N)N)C(=O)N[C@@H](CC1CCCCC1)C(N)=O)[C@@H](C)O) [compound No. 127] | 2.6 | 3.1
